This sample holds only a part of the variants without activity.
Key:
[1] = system: biotinyl-Ile-oxazolone; experiment: self-aminoacylation, catalytic enhancement (BIO) (fold over background); higher = more active; k-Seq, kA / k0A0; sequences stand for … in GGGAAUGGAUCCACAUCUACGAAUUC…UUCACUGCAGACUUGACGAAGCUG
Outline: (§1)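 Working in 50 μL HEPES/NaCl/KCl/MgCl2/CaCl2 buffer with 5% acetonitrile at pH 6.9–7.0, mutagenized RNA pools (0.43 μM; 21-nt variable region) were reacted with 2–1250 μM of each biotinyl-aminoacyl-oxazolone for 90 minutes at room temperature. Streptavidin capture followed, with quantification by triplicate qPCR and Illumina sequencing. Catalytic enhancement is reported as median kA over the uncatalyzed rate, the low-activity peak of a bimodal Gaussian fit to the data.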

[2] = system: biotinyl-Phe-oxazolone; experiment: self-aminoacylation, catalytic enhancement (BFO) (fold over background); higher = more active; k-Seq, kA / k0A0; sequences stand for … in GGGAAUGGAUCCACAUCUACGAAUUC…UUCACUGCAGACUUGACGAAGCUG
Outline: as §1

[3] = system: biotinyl-Met-oxazolone; experiment: self-aminoacylation, catalytic enhancement (BMO) (fold over background); higher = more active; k-Seq, kA / k0A0; sequences stand for … in GGGAAUGGAUCCACAUCUACGAAUUC…UUCACUGCAGACUUGACGAAGCUG
Outline: as §1

[4] = system: biotinyl-Val-oxazolone; experiment: self-aminoacylation, catalytic enhancement (BVO) (fold over background); higher = more active; k-Seq, kA / k0A0; sequences stand for … in GGGAAUGGAUCCACAUCUACGAAUUC…UUCACUGCAGACUUGACGAAGCUG
Outline: as §1

[5] = system: biotinyl-Trp-oxazolone; experiment: self-aminoacylation, catalytic enhancement (BWO) (fold over background); higher = more active; k-Seq, kA / k0A0; sequences stand for … in GGGAAUGGAUCCACAUCUACGAAUUC…UUCACUGCAGACUUGACGAAGCUG
Outline: as §1

[6] = system: biotinyl-Leu-oxazolone; experiment: self-aminoacylation, catalytic enhancement (BLO) (fold over background); higher = more active; k-Seq, kA / k0A0; sequences stand for … in GGGAAUGGAUCCACAUCUACGAAUUC…UUCACUGCAGACUUGACGAAGCUG
Outline: as §1

Sequence	self-aminoacylation [1]	self-aminoacylation [2]	self-aminoacylation [3]	self-aminoacylation [4]	self-aminoacylation [5]	self-aminoacylation [6]
CUACUUCGAACACUCGGUCUG [Fam1A.1 aminoacylation ribozyme variant]	1.02	3.18	1.04	1.18	1	1.32
AUUACCCGGGUCAUCGAGUGA [Fam2.1 aminoacylation ribozyme variant]	3.57	44.9	6.91	3.85	7.86	7.1
CCACCCUUAAAGCAAUCGGUC [Fam1B.1 aminoacylation ribozyme variant]	1.23	1.59	0.96	1.18	1.4	1.05
AUUCACCUAGGUCAUCGGAUG [Fam2.2 aminoacylation ribozyme variant]	0.814	0.601	0.773	0.928	0.594	0.748
AUUCCCCUGGUCAUCUAGUGA [Fam2.1 aminoacylation ribozyme variant]	5.92	85.5	11.9	6.23	13	11.4
AUUCACCUAGAUCAUCGGGGG [Fam2.2 aminoacylation ribozyme variant]	1.79	8.71	2.29	1.91	2.13	2.08
GUUCACCUAGGUCAUCGAGUG [Fam2.2 aminoacylation ribozyme variant]	8.09	27.6	11.4	6.89	6.52	15.7
AUCCACCUGGGUCAUCGGGUG [Fam2.2 aminoacylation ribozyme variant]	4.48	41.8	9.47	6.05	7.25	8.16
UUUACCCUGGUCAUAGAGUGA [Fam2.1 aminoacylation ribozyme variant]	2.89	27.7	5.18	3.07	7.54	5.87
AAGUUUGCGAAAAGUCGCAAG [Fam3.1 aminoacylation ribozyme variant]	1.46	2.82	1.8	1.43	1.3	1.8
ACUCACCUAAGUCAUCGGGUG [Fam2.2 aminoacylation ribozyme variant]	5.02	67.2	9.14	5.83	10.6	10.5
AGUACCCUGGUCAUCUAGUGA [Fam2.1 aminoacylation ribozyme variant]	3.73	47.9	7.51	3.93	8.37	8.87
AUUCACCAAAGUCAUCGGGUG [Fam2.2 aminoacylation ribozyme variant]	9.57	110	15.3	8.23	13.6	19.5
CUACUUCAAACAAUCGGGCCG [Fam1A.1 aminoacylation ribozyme variant]	1.53	1.76	1.19	0.974	1.22	1.32
AUGAACCUAGGUCAUCGGGUG [Fam2.2 aminoacylation ribozyme variant]	4.29	24.6	5.97	4.28	6.44	7.54
CUAGUUCAAACAAUCGGCCUG [Fam1A.1 aminoacylation ribozyme variant]	1.71	12.4	1.76	1.84	11.2	2.2
CUAUUUCAAACAACCGGUCUG [Fam1A.1 aminoacylation ribozyme variant]	0.992	0.87	0.85	0.861	0.827	0.844
CUACUUCAAAAAAUCGGUGUG [Fam1A.1 aminoacylation ribozyme variant]	0.889	1.89	0.946	0.814	1.53	1.31
AUUCACCGAGGUCAUCGGGUG [Fam2.2 aminoacylation ribozyme variant]	6.19	87	11.3	6.85	9.63	14.2
CGACACUUCAAGCAGUCGGUC [Fam1B.1 aminoacylation ribozyme variant]	1.25	1.04	1.64	0.99	1.74	1.23
AUUACCUUGGUGAUCGAGUGA [Fam2.1 aminoacylation ribozyme variant]	2.25	19.7	4.39	2.32	5.81	4.39
AUUAACCUAGGUCAUCAGGUG [Fam2.2 aminoacylation ribozyme variant]	1.24	1.4	1.35	1.48	1.43	1.47
CUACACUUCAAGCAAUAGGUC [Fam1B.1 aminoacylation ribozyme variant]	0.542	1.06	0.44	0.585	0.506	0.527
AAGAUUGCUAAUAGUCGCGAG [Fam3.1 aminoacylation ribozyme variant]	1.3	1.27	1.94	1.44	1.1	1.1
AAGUUUGCUAAUAGUCGGAAG [Fam3.1 aminoacylation ribozyme variant]	1.13	14.8	1.16	1.03	4.58	0.934
AAGUUUACUAUUAGUCGCAAG [Fam3.1 aminoacylation ribozyme variant]	1.83	2.72	1.59	1.76	2.02	1.49

From the supplement of paper PMC9233669
